This is an account of results in patent publication US20260125457A1 (Janssen / Centocor, published 2026).

For assay [1], the target named is T1, CD3EG-HSA-6xHis (CD3W220.002) (human, UniProt P07766 22-118; P09693 23-103).
T1 construct: also called human CD3; not shown: human serum albumin (HSA); 6xHis tag
As to the kind of experiment: SPR, forced degradation: Thermal.

The target of assay [2] is T2, Avi/his-CalR-Ins5 (CALRW28.004) (human, UniProt P27797 18-417, limits assumed).
T2 construct: also called human CALRins5
T2 sequence (looked up): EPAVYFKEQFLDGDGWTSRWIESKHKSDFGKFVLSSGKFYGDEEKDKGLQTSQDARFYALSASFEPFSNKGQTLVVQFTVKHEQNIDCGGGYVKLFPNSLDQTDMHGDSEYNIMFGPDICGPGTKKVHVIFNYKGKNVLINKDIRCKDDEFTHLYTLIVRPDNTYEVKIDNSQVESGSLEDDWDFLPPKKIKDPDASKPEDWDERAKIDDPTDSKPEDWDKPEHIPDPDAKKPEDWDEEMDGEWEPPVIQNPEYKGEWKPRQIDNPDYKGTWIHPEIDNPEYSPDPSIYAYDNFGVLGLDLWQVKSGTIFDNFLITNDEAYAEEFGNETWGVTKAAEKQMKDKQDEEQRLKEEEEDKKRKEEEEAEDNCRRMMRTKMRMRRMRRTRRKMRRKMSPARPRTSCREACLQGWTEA
As to the kind of experiment: SPR, forced degradation: Thermal. In general terms: SPR reads the build-up and loss of mass on a sensor chip optically.

In assay [3] the target is T3, Flag/6xhis-CALRdel52 (CALRW12.007) (human, UniProt P27797 18-417).
T3 construct: also called human CALRdel52
T3 sequence (looked up): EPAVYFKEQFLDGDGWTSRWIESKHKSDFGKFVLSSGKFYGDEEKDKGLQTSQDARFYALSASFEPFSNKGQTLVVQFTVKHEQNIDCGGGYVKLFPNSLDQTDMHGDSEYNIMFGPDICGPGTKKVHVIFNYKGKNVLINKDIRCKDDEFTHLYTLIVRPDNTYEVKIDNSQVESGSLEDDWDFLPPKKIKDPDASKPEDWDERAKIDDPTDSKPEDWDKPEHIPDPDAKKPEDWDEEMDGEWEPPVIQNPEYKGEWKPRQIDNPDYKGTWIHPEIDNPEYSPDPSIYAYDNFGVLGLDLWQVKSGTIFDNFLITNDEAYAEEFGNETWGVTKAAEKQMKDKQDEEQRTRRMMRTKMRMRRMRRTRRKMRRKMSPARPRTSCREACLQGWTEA
As to the kind of experiment: SPR, forced degradation: Thermal.

The target in assay [4] is CALRmut on CD34+ cells isolated from CALRmut MPN patients. As to the kind of experiment: cell-based or functional assay.
In assay [5] the target is T1, CD3EG-HSA-6xHis (CD3W220.002). As to the kind of experiment: SPR, forced degradation: Chem Ox.
In assay [6] the target is T2, Avi/his-CalR-Ins5 (CALRW28.004). As to the kind of experiment: SPR, forced degradation: Chem Ox.
Assay [7] has as its target T3, Flag/6xhis-CALRdel52 (CALRW12.007). Nature of the assay: SPR, forced degradation: Chem Ox.
Assay [8] has as its target T4, CD3 on primary human pan T cells (human, UniProt P07766 23-207).
T4 construct: whole, on cells; also called CD3e; CD3ε
As to the kind of experiment: flow cytometry, CD3+ pan T cells of 6 healthy donors; average over pan T cells of 6 healthy donors; 1 hour 37° C. incubation. The procedure: Flow cytometry was used to evaluate the CD3 arm binding of C3CRB73 to CD3+ pan T cells from 6 different healthy human donors. C3CRB73 and NullxCD3 spFv were tested after 1 hour 37° C. incubation with pan T cells.
Background: Flow cytometry measures light scatter and fluorescence of single cells or particles in a stream.

Assay [9] deals with T5, thrombopoietin receptor (MPL) on cells without CALRmut (UniProt P40238 26-635, limits assumed).
T5 construct: whole, on cells; endogenous on healthy donor CD34+ cells; also called TPOR
T5 sequence (looked up): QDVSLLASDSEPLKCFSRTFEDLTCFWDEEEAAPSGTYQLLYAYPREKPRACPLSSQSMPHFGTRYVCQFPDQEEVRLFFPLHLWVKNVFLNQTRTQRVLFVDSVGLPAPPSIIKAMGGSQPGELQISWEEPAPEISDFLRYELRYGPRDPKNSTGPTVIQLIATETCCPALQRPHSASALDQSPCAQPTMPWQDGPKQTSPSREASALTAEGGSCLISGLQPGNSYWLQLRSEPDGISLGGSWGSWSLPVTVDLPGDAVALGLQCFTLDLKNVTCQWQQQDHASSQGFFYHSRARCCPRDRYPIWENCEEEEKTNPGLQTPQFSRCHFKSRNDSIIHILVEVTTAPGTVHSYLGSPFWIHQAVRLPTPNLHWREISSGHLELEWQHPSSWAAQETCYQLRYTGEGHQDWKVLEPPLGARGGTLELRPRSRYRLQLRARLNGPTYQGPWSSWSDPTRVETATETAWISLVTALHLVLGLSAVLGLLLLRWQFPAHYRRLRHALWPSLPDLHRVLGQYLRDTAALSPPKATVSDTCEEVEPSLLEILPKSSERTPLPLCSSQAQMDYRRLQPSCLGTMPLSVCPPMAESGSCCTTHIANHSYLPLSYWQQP
As to the kind of experiment: flow cytometry on ELF-153 MPL cells, 1 h at 37 C, AF647 secondary antibody, Geometric Mean.

Assay [10] addresses T6, CALRdel52 (mutant calreticulin, 52 base pair deletion, Type 1) expressed with MPL on engineered cancer cells (UniProt P27797 18-417).
T6 sequence (looked up): T3 sequence (looked up)
As to the kind of experiment: cell-based or functional assay.

Assay [11] addresses T7, CALRins5 (mutant calreticulin, 5 base pair insertion, Type 2) expressed with MPL on engineered cancer cells (UniProt P27797 18-417).
T7 sequence (looked up): T2 sequence (looked up)
As to the kind of experiment: cell-based or functional assay.

T1 sequence (P07766 other isoform, or with tags, fused parts or gaps): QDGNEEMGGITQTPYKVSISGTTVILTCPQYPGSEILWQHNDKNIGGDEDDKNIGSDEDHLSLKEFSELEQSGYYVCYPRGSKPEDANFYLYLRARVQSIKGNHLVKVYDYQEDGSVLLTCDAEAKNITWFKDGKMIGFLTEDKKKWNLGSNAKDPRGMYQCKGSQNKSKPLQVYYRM
T4 sequence (P07766 23-207): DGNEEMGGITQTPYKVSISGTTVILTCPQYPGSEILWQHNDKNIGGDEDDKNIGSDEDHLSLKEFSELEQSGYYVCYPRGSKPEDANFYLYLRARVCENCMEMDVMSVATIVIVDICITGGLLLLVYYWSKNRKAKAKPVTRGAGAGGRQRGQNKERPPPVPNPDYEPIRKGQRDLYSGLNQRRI

B1: C3CRB73 CALRmut x CD3 bispecific antibody (bispecific antibody, human IgG1, kappa, L234A L235A)
heavy: EVQLLESGGGLVQPGGSLRLSCAVSGIDLSNNAISWVRQAPGKGLEYVGVIGNTGDTYYADSAKGRFTISRDSSKTTLYLQMNSLRAEDTAVYFCVRGPPSYSSSVKNIWGQGTLVTVSSASTKGPSVFPLAPSSKSTSGGTAALGCLVKDYFPEPVTVSWNSGALTSGVHTFPAVLQSSGLYSLSSVVTVPSSSLGTQTYICNVNHKPSNTKVDKKVEPKSCDKTHTCPPCPAPEAAGGPSVFLFPPKPKDTLMISRTPEVTCVVVSVSHEDPEVKFNWYVDGVEVHNAKTKPREEQYNSTYRVVSVLTVLHQDWLNGKEYKCKVSNKALPAPIEKTISKAKGQPREPQVYTLPPSREEMTKNQVSLSCAVKGFYPSDIAVEWESNGQPENNYKTTPPVLDSDGSFFLVSKLTVDKSRWQQGNVFSCSVMHEALHNRFTQKSLSLSPGK
light: DIQMTQSPSSVSASVGDRVTITCQSSQSVYNNNWLSWLQQKPGKAPKRLIYDASKLESGVPSRFSGSGSGTDFTLTISSVQPEDAATYYCAGGFTGNVYTFGGGTKVEIKRTVAAPSVFIFPPSDEQLKSGTASVVCLLNNFYPREAKVQWKVDNALQSGNSQESVTEQDSKDSTYSLSSTLTLSKADYEKHKVYACEVTHQGLSSPVTKSFNRGEC
scFv: DIQMTQSPSSLSASVGDRVTITCRARQSIGTAIHWYQQKPGCAPKLLIKYASESISGVPSRFSGSGSGTDFTLTISSLQPEDFATYYCQQSGSWPYTFGQGTKLEIKGGGSGGSGGCPPCGGSGGEVQLVESGGGLVKPGGSLRLSCAASGFTFSRYNMNWVRQAPGKGLEWVSSISTSSNYIYYADSVKGRFTFSRDNAKNSLDLQMSGLRAEDTAIYYCTRGWGPFDYWGCGTLVTVSSEPKSSDKTHTCPPCPAPEAAGGPSVFLFPPKPKDTLMISRTPEVTCVVVSVSHEDPEVKFNWYVDGVEVHNAKTKPREEQYNSTYRVVSVLTVLHQDWLNGKEYKCKVSNKALPAPIEKTISKAKGQPREPQVYTLPPSREEMTKNQVSLWCLVKGFYPSDIAVEWESNGQPENNYKTTPPVLDSDGSFFLYSKLTVDKSRWQQGNVFSCSVMHEALHNHYTQKSLSLSPGK
notes: IgG1-AAS; also called JNJ-88549968; CALRB421 Fab x CD3 spFv
By Kd is commonly meant the constant that tells how readily two partners part at equilibrium. Usually EC50 stands for the concentration that produces a half-maximal response. The low end stands for a more potent agent, the high end for a less potent agent. Consider B1, for which, in assay [1], the “% Active” value was 94% and the Kd was found to be 225 pM. In assay [2], the “% Active” value is 94% and the Kd was 35.7 pM. For the same molecule, in assay [3], the “% Active” value was 98% and the Kd is 66.4 pM. Also, in assay [4], the cytotoxicity EC50, autologous assay, patient CALRmut CD34+ cells turned out to be 0.94 nM; the cytotoxicity EC90, autologous assay, patient CALRmut CD34+ cells was determined as 7.58 nM; the maximal cytotoxicity, autologous assay, CD34+ cells of one donor without detected binding came out at 68%; the maximum cytotoxicity, autologous assay, patient CALRmut CD34+ cells is 69%. Besides, in [5], the “% Active” value amounted to 95% and the equilibrium dissociation constant (Kd) was determined as 306 pM. Further, in assay [6], the “% Active” value is 94% and binding was characterised by a dissociation constant (Kd) of 40.8 pM. Besides, in assay [7], the “% Active” value turned out to be 94% and the Kd amounted to 70 pM. For the same molecule, the EC50 in assay [8] amounted to 23800 pM. The binding result in assay [9] is reported as “no binding (tested: 100 nM)”. In assay [10], the “T cell-mediated cytotoxicity EC50 (nM), ELF-153 MPL CALRdel52” value amounted to 0.034 nM and the “T cell-mediated cytotoxicity EC50 (nM), OCI-M2 MPL CALRdel52” value is 0.61 nM. In assay [11], the “T cell-mediated cytotoxicity EC50 (nM), ELF-153 MPL CALRins5” value turned out to be 0.094 nM and the “T cell-mediated cytotoxicity EC50 (nM), OCI-M2 MPL CALRins5” value came to 1.69 nM.
